The chains are these.
B1: 25C01 (antibody, V domains shown)
VH: EVHLVESGGGLVQPGGSLRLSCSASRFTFSTSAMTWVRQAPGKGLEWVSVISASGTTTYYGDSVKGRFTISRDNSKNTLHLQMNSLRAEDTAVYYCAKGGLAVPGPNYWGQGTLVTVSS
VL: DVVMTQSPLSLPVTLGQPASISCRSSQSLVFSDGNTYLTWFQQRPGQSPRRLIYKVSDRDSGVPDRFSGSGSGTDFTLQISRVEAEDVGLYYCMQGSHWPLTFGGGTKVEIK
notes: Detected with anti-human IgG
B2: 30G01 (antibody, V domains shown)
VH: QVQLQESGPGLVKPSGTLSLTCAVSGGSISSSNWWSWVRQPPGKGLEWIGEIYHSGNTNYNPSLKSRVTISVDKSKNQFSLKLSSVTAADTAVYYCVRGYYYDSGTSWGYYYGMDVWGQGTTVTVSS
VL: DIQMTQSPSSLSASVGDRVTITCRASQGISNYLAWFQQRPGRAPKSLIYAASSLQRGVPSKFSGSGSGTDFTLTISSLQPEDFATYYCQQYNSYPITFGQGTRLEIK
B3: 25A01 (antibody, V domains shown)
VH: QVQLVQSEAEVKKPGASVKVSCKASGYIFTTFGLSWVRQAPGQGLEWMGRITTNNGNTIYERRFQGRVTMTIDTSTTTAYMEMRSLTSDDTAVYYCARDGAPQDHWGQGTLVTVSS
VL: DIQMTQSPSSLSVSVGDRVIITCRASQDIRNSLAWFQQKPGKAPKSLIFAASSLQSGVPSKFRGSGFGTDFTLTITSLQPEDFATYYCQQYSSYPLTFGGGTKVEIK
notes: Detected with anti-human IgG
B4: 25F08 (antibody, V domains shown)
VH: QVQLVQSGPEVKKPGASVKVSCQASGYTFTTYGINWVRQAPGQGLEWMGRISAYNGNTNYAQKFQGRVTMTTDTSTRTAYMEMSNLISDDTAVYYCARDGAPQDHWGQGTLITVSS
VL: B3 VL with V19I, I20T, R30S, R63S, F67S, T72N, L73F, T76S, S92N, Y94F
notes: Detected with anti-human IgG
B5: 22G09 (antibody, V domains shown)
VH: QVQLVQSGAEVRKPGASVKVSCKASGYTFTDYAIHWVRQAPGQRLEWMGWIIVGNGKTRYSQKFQGRVTITWETSATTAYMDLSSLRSEDTAVYYCARGFTMVRGAPYYDGMDVWGQGTTVTVSS
VL: DIVMTQSPLSLPVTPGEPASISCRSSQSLLYTTGYNYLDWYLQKPGLSPQLLIYLGSYRASGVPDRFTGSGSGTDFTLKISRVEAEDVGVYYCMQALQAPTFGGGTKLEIK
notes: Detected with anti-human IgG
B6: 32A07 (antibody, V domains shown)
VH: B5 VH with A9P, K13N, K19R, I34L, S61A, T77S, Y80F, M112L, V123I
VL: DIVMTQSPLSLPVTLGQPASISCRSSQSLIYSDGNTYLNWFQQRPGQSPRRLIYKVSNRDSGVPDRFSGSGSGTDFTLKISRVEAEDVGVYYCLQGTLWPITFGQGTRLEIK
B7: 32B04 (antibody, V domains shown)
VH: B5 VH with L4F, V68L
VL: B5 VL
notes: Detected with anti-human IgG; also called 32604
B8: 35A06 (antibody, V domains shown)
VH: B5 VH with I34L, S61A, T77S, Y80F, M112L
VL: B5 VL with T32S, Y58N, T68S, A99T, L108V
notes: Detected with anti-human IgG
B9: 32E01 (antibody, V domains shown)
VH: B5 VH with T77S
VL: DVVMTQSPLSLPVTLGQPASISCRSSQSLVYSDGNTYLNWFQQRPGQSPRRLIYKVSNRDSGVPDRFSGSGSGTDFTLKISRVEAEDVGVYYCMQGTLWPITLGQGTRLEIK
B10: 28B08 (antibody, V domains shown)
VH: B5 VH with I34L, S61A, T77S, Y80F, M81V, S84N, M112L
VL: B5 VL with P12S, T32S, Y58N, T68S, V90F, L108V
notes: Detected with anti-human IgG; also called 28608
B11: 32D04 (antibody, V domains shown)
VH: B5 VH with A9P, K13N, K19R, I34L, S61A, T77S, Y80F, M112L, V123I
VL: B5 VL with T14S, T32S, Y58I, T68S, K79S, V90I, A99T, L108V
notes: Detected with anti-human IgG
B12: 28C11 (antibody, V domains shown)
VH: B5 VH with S61A, T77S, M112L
VL: B5 VL with Y31F, T32S, Y58N, T68S, A99T, L108V
notes: Detected with anti-human IgG
B13: 35E11 (antibody, V domains shown)
VH: B5 VH with S61A, F64L, T77S, S84T, M112L
VL: B5 VL with T32S, Q50H, Y58N, T68S, A99T, L108V
B14: 27A03 (antibody, V domains shown)
VH: EVQLVESGGGLVKPGGSLRLSCAASGFTFSTYSMNWVRQAPGKGLEWVSSISRSSSYIYYADSVKGRFTISRDNAKNSLSLQMNSLRAEDTAVYYCARGAAAGTDYWGQGTLVTVSS
VL: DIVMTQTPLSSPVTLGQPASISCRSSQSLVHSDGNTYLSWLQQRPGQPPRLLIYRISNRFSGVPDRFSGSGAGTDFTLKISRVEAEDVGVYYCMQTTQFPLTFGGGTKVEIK
B15: 35A10 (antibody, V domains shown)
VH: B14 VH
VL: B6 VL

Residue numbers refer to the chain shown, from its start.

This assay concerns the target T1, KP1.2 peptide of the D2E2 loop of the Nav1.7 channel (human, not fully specified).
T1 construct: also called human NAV1.7 peptide
T1 peptide: H-VELFLADVEGC-NH2
In words: DELFIA: KP1.2 peptide on streptavidin plate, purified antibody undiluted, Eu-labelled anti-human IgG, time-resolved fluorescence at 615 nm. The method, then:
Four mice were immunised substantially as detailed in Table 6. The immunisations of Boost 6 each used 3 μg of KP1.2-KLH and 3 μg KP5.1-KLH, adjuvanted with IFA, CpG and Alum as set out in Table 6. A seventh booster immunisation was added, which consisted of 2 μg of KP1.2-KLH and 2 μg KP5.1-KLH, adjuvanted with IFA, CpG and Alum as set out in Table 6. Antibodies were isolated from these mice. 17 antibodies were identified using B-cell cloning technique as described above with labelled KP1.2 peptide (SEQ ID No:10). These 17 antibodies were further tested for binding to human NAV1.7 peptide using a DELFIA assay.
Streptavidin Even Coat 96 well plates (R&D Systems) were coated with 50 μL of 4 μg/ml KP1.2 peptide (SEQ ID No:10, synthesised by Mimotopes) diluted in 1×PBS (Sigma) for 1 hr at room temperature (RT). Plates were then washed 3× with 1×PBS+0.1% tween (200 μL/well). Plates were blocked with 200 μL PBS+1% BSA (Sigma) for 1 hr at RT. Plates were then washed again 3× with 1×PBS+0.1% tween (Sigma) (200 μL/well). Purified antibodies were then added non-diluted to washed plate and incubated for 1 hr at RT (50 μL/well). Plates were then washed 3× with 1×PBS+0.1% tween (200 μL/well). 50 μL/well of Dissociation-Enhanced Lanthanide Fluorescent Immunoassay (DELFIA) Europium-labelled Anti-Human IgG antibody (Perkin Elmer) diluted 1:500 in DELFIA assay buffer (Perkin Elmer) for 1 hr at RT. Plates were then washed 3× with DELFIA wash buffer (Perkin Elmer) (200 μL/well). 50 μL/well of DELFIA Enhancement Solution (Perkin Elmer, warmed to RT before use) was added to each well and incubated for 5 min at RT on shaker (Heidolph Titramax). […] Values were plotted using Prism (Graph Pad Prism).
With B1, the binding result is listed as “binds”.

Regarding B2, the binding result is recorded as “no binding (tested: undiluted, concentration not given)”.

As for B3, the binding result was “binds”.

Regarding B4, the binding result is listed as “binds”.

In the case of B5, the binding result was “binds”.

As to B6, the binding result is “no binding (tested: undiluted, concentration not given)”.

As to B7, the binding result is “binds”.

Regarding B8, the binding result was “binds”.

On to B9, for which the binding result is recorded as “no binding (tested: undiluted, concentration not given)”.

As for B10, the binding result is given as “binds”.

As for B11, the binding result was “binds”.

Take B12: the binding result is given as “binds”.

With B13, the binding result is recorded as “binds”.

Consider B14, for which the binding result is listed as “no binding (tested: undiluted, concentration not given)”.

Consider B15, for which the binding result was “no binding (tested: undiluted, concentration not given)”.

For the origin of these results see patent publication US20170306013A1 (KYMAB, published 2017).
